The values below come from publication PMC8093215 (2021).

For one assay, the target named is hDNMT1 BAH1 domain D768A (human, UniProt P26358 728-900, D768A). Kind of assay: ITC.
In another assay the target is hDNMT1 BAH1 domain Y775A (human, UniProt P26358 728-900, Y775A). Briefly: ITC. (In general: In ITC the heat of successive injections is recorded.)
hDNMT1 BAH1 domain Y775A, sequence (P26358 728-900 Y775A): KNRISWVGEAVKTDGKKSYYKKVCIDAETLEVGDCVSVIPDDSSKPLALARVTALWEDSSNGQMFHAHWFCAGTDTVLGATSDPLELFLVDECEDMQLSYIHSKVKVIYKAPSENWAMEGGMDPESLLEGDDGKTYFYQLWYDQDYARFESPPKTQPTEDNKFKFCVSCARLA

hDNMT1 BAH1 domain D768A, sequence (P26358 728-900 D768A): as the sequence (P26358 728-900 Y775A) above, with D41A, A48Y counted along it

One may read the Kd as the free concentration of one partner at which half of the binding sites on the other are occupied at equilibrium, for simple one-to-one binding. With GAKRHRKVLRDNY (trimethyl-lysine at K20) [H4(14–25)K20me3 peptide], the Kd in the assay with hDNMT1 BAH1 domain D768A came to 10 µM; with hDNMT1 BAH1 domain Y775A it was 361 µM.
